Measured values as given in patent US5990092.

Target: GATA-6 (Homo sapiens) (UniProt Q92908)
Assay: cell_activity
Details: luciferase transactivation in p53-/- MEFs

Sequence of GATA-6 (Homo sapiens) (Q92908 147-595): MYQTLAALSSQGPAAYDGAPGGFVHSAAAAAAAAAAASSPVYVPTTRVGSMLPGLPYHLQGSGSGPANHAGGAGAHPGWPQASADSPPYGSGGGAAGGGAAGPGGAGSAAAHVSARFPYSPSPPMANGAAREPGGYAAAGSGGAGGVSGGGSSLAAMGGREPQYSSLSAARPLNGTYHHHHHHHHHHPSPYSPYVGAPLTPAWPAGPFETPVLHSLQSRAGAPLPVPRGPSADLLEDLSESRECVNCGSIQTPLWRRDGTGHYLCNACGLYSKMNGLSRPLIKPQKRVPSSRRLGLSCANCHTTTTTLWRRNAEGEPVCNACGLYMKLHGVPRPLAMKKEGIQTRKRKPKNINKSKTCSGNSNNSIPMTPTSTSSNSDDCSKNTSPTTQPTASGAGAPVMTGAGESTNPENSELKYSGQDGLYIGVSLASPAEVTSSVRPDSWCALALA

With p21 promoter 3.8 kbp the activity was 3.7 fold.
